Source: PMC10403316
“And” between values parts separate entries of the source, which are not always exact repeats. Equal entries are not always repeated.

What was measured:
[1] = target: human UBR5 E3 ubiquitin ligase, full length, with an N-terminal FLAG tag (human) (UniProt O95071); experiment: cryo-EM structure; settings: remark: other sources report otherwise
[2] = target: human UBR5 E3 ubiquitin ligase, full length, with an N-terminal FLAG tag (human) (UniProt O95071); experiment: SEC; settings: remark: other sources report otherwise

With “human UBR5 E3 ubiquitin ligase, full length, with an N-terminal FLAG tag, O95071 1-2799” the stoichiometry N [1] was 2 and the stoichiometry N [2] was 2 and 4.
